The values below come from patent US20240287178A1 (YALE UNIVERSITY, published 2024).

Test [1] concerns the target T1, Rat UNC5B (rat, UniProt O08722).
T1 construct: a recombinant rat Unc5B-ECD Fc fusion protein (R&D systems) only for the phage selection; Kept apart from m11, which is the GFP fusion expressed in PAECs; also called rat Unc5B (Biacore analysis)
The test is described as follows: Biacore. For orientation: In SPR one partner is held on a chip, and binding of the other changes the refractive index at the surface.

The target of test [2] is T2, human Unc5B (human, UniProt Q8IZJ1 27-945).
T2 construct: whole, on cells; also called Unc5B (HUVEC)
As to the kind of experiment: Biacore.

In test [3] the target is T3, Unc5B (analyte or ligand of the Biacore analysis; species and construct not stated).
T3 construct: The phage selection used a recombinant rat Unc5B-ECD Fc fusion (R&D Systems)
As to the kind of experiment: Biacore (SPR); format not stated.

The target of test [4] is T4, rat Unc5B coupled to GFP, in transfected porcine aortic endothelial cells (PAECs) (rat, UniProt O08722 27-945).
T4 construct: whole, on cells; also called rat Unc5B-GFP; not shown: GFP
The test is described as follows: immunoprecipitation from PAECs transfected with rat Unc5B-GFP, 1 h after antibody treatment. The text has this: Light (LC) and Heavy (HC) chains were sequenced for each antibody (FIGS. 1A-1D and 2A-2D).

Test [5] addresses T5, mouse Unc5B (mouse, UniProt Q8K1S3 27-945).
T5 construct: whole, on cells; Endogenous receptor, on cells or in brain lysates; also called Unc5B (Bend.3 cells, mouse brain)
The test is described as follows: immunoprecipitation from Bend.3 cells after antibody treatment, western blot for Unc5B. For orientation: In western blotting, separated proteins are transferred to a membrane and probed.

The target in test [6] is T5, mouse Unc5B. As to the kind of experiment: co-immunoprecipitation with the anti-Unc5B antibodies from Bend.3 cells, western blot for Claudin5.

B1: antibody 1097 (antibody, V domains shown)
VH: EVQLVESGGGLVQPGGSLRLSCAASGFNLYYYSMHWVRQAPGKGLEWVASIYSYSSYTSYADSVKGRFTISADTSKNTAYLQMNSLRAEDTAVYYCARSYAMDYWGQGTLVTVSS
VL: DIQMTQSPSSLSASVGDRVTITCRASQSVSSAVAWYQQKPGKAPKLLIYSASSLYSGVPSRFSGSRSGTDFTLTISSLQPEDFATYYCQQSYGPFTFGQGTKVEIKR
In general, Kd refers to the equilibrium constant for the complex coming apart. One may read the koff as the rate constant with which the complex falls apart. A high value points to fast dissociation. Broadly, the kon is a measure of how fast the partners come together. Read a high kon as fast association. As to B1, the Kd in test [1] is 0.712 nM; in test [2], 0.692 nM; in test [3], 0.7 nM. Further, the koff worked out at 0.00104 s⁻¹ in test [1] and 0.000993 s⁻¹ in test [2]. Further, the association rate constant (kon) in test [1] is 1.46e+06 M⁻¹ s⁻¹; in test [2], 1.44e+06 M⁻¹ s⁻¹.

B2: antibody 1101 (antibody, V domains shown)
VH: EVQLVESGGGLVQPGGSLRLSCAASGFNIYYSSMHWVRQAPGKGLEWVAYISSSYGYTYYADSVKGRFTISADTSKNTAYLQMNSLRAEDTAVYYCARGYYAGYFGIDYWGQGTLVTVSS
VL: DIQMTQSPSSLSASVGDRVTITCRASQSVSSAVAWYQQKPGKAPKLLIYSASSLYSGVPSRFSGSRSGTDFTLTISSLQPEDFATYYCQQAGWPITFGQGTKVEIKR
As for B2, the binding result in test [4] is “binds”.

B3: antibody 1100 (antibody, V domains shown)
VH: EVQLVESGGGLVQPGGSLRLSCAASGFNLYYSSIHWVRQAPGKGLEWVASIYSYSSYTSYADSVKGRFTISADTSKNTAYLQMNSLRAEDTAVYYCARGYAMDYWGQGTLVTVSS
VL: DIQMTQSPSSLSASVGDRVTITCRASQSVSSAVAWYQQKPGKAPKLLIYSASSLYSGVPSRFSGSRSGTDFTLTISSLQPEDFATYYCQQHYGLITFGQGTKVEIKR
Consider B3, for which the binding result in test [4] and in test [5] was “binds” in each case.

B4: anti-Unc5B antibody 1103 (antibody, V domains shown)
VH: EVQLVESGGGLVQPGGSLRLSCAASGFNISYYSIHWVRQAPGKGLEWVASIYSSSGYTSYADSVKGRFTISADTSKNTAYLQMNSLRAEDTAVYYCARGYGLDYWGQGTLVTVSS
VL: DIQMTQSPSSLSASVGDRVTITCRASQSVSSAVAWYQQKPGKAPKLLIYSASSLYSGVPSRFSGSRSGTDFTLTISSLQPEDFATYYCQQHYSYPITFGQGTKVEIKR
In test [1], B4 displayed a dissociation constant (Kd) of 1.34 nM, a koff of 0.000501 s⁻¹ and a kon of 375000 M⁻¹ s⁻¹. Besides, in test [2], binding was characterised by a dissociation constant (Kd) of 1.29 nM, the koff amounted to 0.000482 s⁻¹ and the kon was found to be 375000 M⁻¹ s⁻¹. The dissociation constant Kd in test [3] stood at 1.3 nM.

B5: antibody 1095 (antibody, human IgG2, kappa, V domains shown)
VH: EVQLVESGGGLVQPGGSLRLSCAASGFNISYSSIHWVRQAPGKGLEWVAYIYPYYGYTYYADSVKGRFTISADTSKNTAYLQMNSLRAEDTAVYYCARGYGIDYWGQGTLVTVSS
VL: DIQMTQSPSSLSASVGDRVTITCRASQSVSSAVAWYQQKPGKAPKLLIYSASSLYSGVPSRFSGSRSGTDFTLTISSLQPEDFATYYCQQHYSLFTFGQGTKVEIKR
For B5, the binding result in test [4] and in test [5] was “binds” in each case.

B6: antibody 1102 (antibody, V domains shown)
VH: EVQLVESGGGLVQPGGSLRLSCAASGFNIYYSSMHWVRQAPGKGLEWVASIYSYSSYTSYADSVKGRFTISADTSKNTAYLQMNSLRAEDTAVYYCARSFAMDYWGQGTLVTVSS
VL: DIQMTQSPSSLSASVGDRVTITCRASQSVSSAVAWYQQKPGKAPKLLIYSASSLYSGVPSRFSGSRSGTDFTLTISSLQPEDFATYYCQQAYSPFTFGQGTKVEIKR
With B6, the binding result in test [4] is recorded as “binds”.

B7: antibody 1096 (antibody, V domains shown)
VH: EVQLVESGGGLVQPGGSLRLSCAASGFNLYYSSIHWVRQAPGKGLEWVASIYSYSSYTSYADSVKGRFTISADTSKNTAYLQMNSLRAEDTAVYYCARSYAMDYWGQGTLVTVSS
VL: DIQMTQSPSSLSASVGDRVTITCRASQSVSSAVAWYQQKPGKAPKLLIYSASSLYSGVPSRFSGSRSGTDFTLTISSLQPEDFATYYCQQGFAPFTFGQGTKVEIKR
B7: the binding result in test [4] and in test [5] was “binds” throughout.

B8: antibody 1098 (antibody, V domains shown)
VH: EVQLVESGGGLVQPGGSLRLSCAASGFNIYYSYMHWVRQAPGKGLEWVASIYSYSSYTSYADSVKGRFTISADTSKNTAYLQMNSLRAEDTAVYYCARHYAMDYWGQGTLVTVSS
VL: DIQMTQSPSSLSASVGDRVTITCRASQSVSSAVAWYQQKPGKAPKLLIYSASSLYSGVPSRFSGSRSGTDFTLTISSLQPEDFATYYCQQSYSPFTFGQGTKVEIKR
As to B8, the binding result in test [4] and in test [5] was “binds” each time.

B9: antibody 1099 (antibody, V domains shown)
VH: EVQLVESGGGLVQPGGSLRLSCAASGFNLYYYSIHWVRQAPGKGLEWVASIYPYSSYTSYADSVKGRFTISADTSKNTAYLQMNSLRAEDTAVYYCARGYAFNYWGQGTLVTVSS
VL: DIQMTQSPSSLSASVGDRVTITCRASQSVSSAVAWYQQKPGKAPKLLIYSASSLYSGVPSRFSGSRSGTDFTLTISSLQPEDFATYYCQQHYALFTFGQGTKVEIKR
Consider B9, for which the binding result in test [4] is reported as “binds”.

B10: mouse Claudin5 (other, UniProt O54942 1-218, looked up)
chain: MGSAALEILGLVLCLVGWVGLILACGLPMWQVTAFLDHNIVTAQTTWKGLWMSCVVQSTGHMQCKVYESVLALSAEVQAARALTVGAVLLALVALFVTLTGAQCTTCVAPGPVKARVALTGGALYAVCGLLALVPLCWFANIVVREFYDPTVPVSQKYELGAALYIGWAASALLMCGGGLVCCGAWVCTGRPEFSFPVKYSAPRRPTANGDYDKKNYV
On to B10, for which the binding result in test [6] is given as “binds”.
